Results: patent US20250066487A1 (ABL BIO, published 2025)

B1: 1A12 (antibody, human IgG4 S228P, lambda, V domains shown)
VH: EVQLLESGGGLVQPGGSLRLSCAASGFTFSGYDMSWVRQAPGKGLEWVSVIYPDDGNTYYADSVKGRFTISRDNSKNTLYLQMNSLRAEDAAVYYCAKHGGQKPTTKSSSAYGMDGWGQGTLVTVSS
VL: QSVLTQPPSASGTPGRRVTISCSGSSSNIGNNYVTWYQQLPGTAPKLLIYADSHRPSGVPDRFSGSKSGTSASLAISGLRSEDEADYYCATWDYSLSGYVFGGGTKLTVLG
notes: Full-length IgG form; also called 1Al2; anti-4-1BB antibody 1A12 (full-length IgG form)
B2: AB41 (antibody, human IgG4 S228P, kappa, V domains shown)
VH: QVQLQQSGAEVIKPGASVKLSCKASGYTFSSYWMHWVRQAPGQGLEWIGEINPGNGHTNYNEKFKSRATLTGDTSTSTVYMELSSLRSEDTAVYYCARSFTTARAFAYWGQGTLVTVSS
VL: DIVMTQSPAFLSVTPGEKVTITCRASQTISDYLHWYQQKPDQAPKLLIKYASQSISGIPSRFSGSGSGTDFTFTISSLEAEDAATYYCQDGHSFPPTFGQGTKLEIKR
notes: Full-length IgG form; also called anti-4-1BB antibody AB41 (full-length IgG form)
B3: Urelumab (antibody, V domains shown)
VH: QVQLQQWGAGLLKPSETLSLTCAVYGGSFSGYYWSWIRQSPEKGLEWIGEINHGGYVTYNPSLESRVTISVDTSKNQFSLKLSSVTAADTAVYYCARDYGPGNYDWYFDLWGRGTLVTVSS
VL: EIVLTQSPATLSLSPGERATLSCRASQSVSSYLAWYQQKPGQAPRLLIYDASNRATGIPARFSGSGSGTDFTLTISSLEPEDFAVYYCQQRSNWPPALTFGGGTKVEIK

How the values were obtained:
[1] = target: T1, human 4-1BB-Fc protein (Sino Biological) (human, UniProt Q07011 24-186); test: ELISA, plate coated with human 4-1BB-Fc, detection with anti-human IgG-HRP
T1 construct: Bought protein; not shown: Fc part of the bought fusion protein

[2] = target: T2, human 4-1BB expressed on GloResponse NFκB-luc2/4-1BB Jurkat cells (Promega) (human, UniProt Q07011 24-255); test: cell-based or functional assay
[3] = target: T2, human 4-1BB expressed on GloResponse …; test: cell-based or functional assay; remark: listed apart in the source

T2 sequence (Q07011 24-255 limits assumed): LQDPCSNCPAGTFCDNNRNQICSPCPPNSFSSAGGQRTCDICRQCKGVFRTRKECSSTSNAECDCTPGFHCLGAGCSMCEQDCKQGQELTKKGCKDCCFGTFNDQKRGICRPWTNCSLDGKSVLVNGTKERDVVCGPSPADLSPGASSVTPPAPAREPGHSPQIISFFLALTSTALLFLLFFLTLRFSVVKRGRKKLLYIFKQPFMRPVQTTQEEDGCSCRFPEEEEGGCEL
T1 sequence (Q07011 24-186 limits assumed): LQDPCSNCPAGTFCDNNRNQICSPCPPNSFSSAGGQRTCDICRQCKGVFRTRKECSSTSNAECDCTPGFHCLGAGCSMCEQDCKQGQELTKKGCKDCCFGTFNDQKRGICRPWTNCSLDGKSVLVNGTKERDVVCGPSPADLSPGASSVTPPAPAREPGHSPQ

| Binder | EC50 [1] [nM] | EC50, FcγRIIb-independent 4-1BB bioassay [2] [nM] | Fold of induction (RLU), FcγRIIb-independent 4-1BB bioassay [2] | EC50, FcγRIIb-dependent 4-1BB bioassay [3] [nM] | Fold of induction (RLU), FcγRIIb-dependent 4-1BB bioassay [3] |
| --- | --- | --- | --- | --- | --- |
| B1 | 0.18 |  |  |  |  |
| B2 | 0.2 |  |  |  |  |
| B3 |  | 0.537 | 14.1 fold (RLU) | 0.239 | 190 fold (RLU) |
